According to US20210198377A1 (XDCEXPLORER SHANGHAI, published 2021):
Like-named read-outs stand apart in the source and are kept apart here. Blank lines part the entries; values can stand above or below the molecule they belong to.

Legend:
[1] = biological target: T1, human TPBG (full length, on cells) (human, UniProt Q13641 32-420); assay: FACS, HEK293 clone 293F-hTPBG 4H12
T1 sequence (looked up): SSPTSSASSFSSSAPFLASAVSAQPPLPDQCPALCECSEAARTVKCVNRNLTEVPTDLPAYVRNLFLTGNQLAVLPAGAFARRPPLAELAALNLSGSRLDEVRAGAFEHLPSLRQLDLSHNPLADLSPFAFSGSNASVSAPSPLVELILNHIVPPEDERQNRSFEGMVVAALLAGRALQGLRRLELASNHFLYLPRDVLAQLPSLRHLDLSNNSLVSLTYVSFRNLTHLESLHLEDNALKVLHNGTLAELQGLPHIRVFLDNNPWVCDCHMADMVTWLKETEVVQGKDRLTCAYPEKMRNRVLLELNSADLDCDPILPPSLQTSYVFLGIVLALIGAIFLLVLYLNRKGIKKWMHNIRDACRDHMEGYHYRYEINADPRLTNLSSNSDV

[2] = biological target: T1, human TPBG (full length, on cells); assay: FACS, HEK293 clone 293F-hTPBG 5H6
[3] = biological target: T1, human TPBG (full length, on cells); assay: FACS, HEK293 clone 293F-hTPBG 4C5
[4] = biological target: T1, human TPBG (full length, on cells); assay: FACS, HEK293 clone 293F-hTPBG 4A8
[5] = biological target: T1, human TPBG (full length, on cells); assay: FACS on CHO-k1-hTPBG 3A2F1 cells
[6] = biological target: T2, mouse TPBG (full length, on cells) (mouse, UniProt Q9Z0L0 32-426); assay: FACS on CHO-k1-mTPBG 3A3 cells
T2 construct: whole, on cells; On transfected CHO-K1 cells; also called mTPBG; CHO-K1-mTPBG
T2 sequence (looked up): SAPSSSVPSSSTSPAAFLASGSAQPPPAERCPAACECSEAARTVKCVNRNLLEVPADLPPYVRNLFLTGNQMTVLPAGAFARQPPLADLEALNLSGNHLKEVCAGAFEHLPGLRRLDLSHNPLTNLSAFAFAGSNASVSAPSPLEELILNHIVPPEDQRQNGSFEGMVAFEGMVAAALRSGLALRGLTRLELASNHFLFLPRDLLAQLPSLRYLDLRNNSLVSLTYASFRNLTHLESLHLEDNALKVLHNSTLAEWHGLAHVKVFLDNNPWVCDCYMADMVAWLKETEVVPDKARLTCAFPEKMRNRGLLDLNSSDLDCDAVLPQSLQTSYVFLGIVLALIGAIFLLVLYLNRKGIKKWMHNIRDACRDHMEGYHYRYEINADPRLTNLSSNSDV

[7] = biological target: T1, human TPBG (full length, on cells); assay: FACS, HEK293 clone 293F-hTPBG 5E6
[8] = biological target: T1, human TPBG (full length, on cells); assay: FACS, HEK293 clone 293F-hTPBG 5C12
[9] = biological target: T1, human TPBG (full length, on cells); assay: FACS, HEK293 clone 293F-hTPBG 4A9
[10] = biological target: T1, human TPBG (full length, on cells); assay: FACS, HEK293 cell strain 5E5E9 transfected with human TPBG
[11] = biological target: T1, human TPBG (full length, on cells); assay: FACS, HEK293 clone 293F-hTPBG 5D4
[12] = biological target: T1, human TPBG (full length, on cells); assay: FACS, HEK293 clone 293F-hTPBG 4E1
[13] = biological target: T1, human TPBG (full length, on cells); assay: FACS, HEK293 clone 293F-hTPBG 5G8
[14] = biological target: T1, human TPBG (full length, on cells); assay: FACS, HEK293 clone 293F-hTPBG 5G11
[15] = biological target: T1, human TPBG (full length, on cells); assay: FACS, HEK293 clone 293F-hTPBG 5A9
[16] = biological target: T1, human TPBG (full length, on cells); assay: FACS, HEK293 clone 293F-hTPBG 4B9
[17] = biological target: T1, human TPBG (full length, on cells); assay: FACS, HEK293 clone 293F-hTPBG 4E1 (NO. 8)
[18] = biological target: cynomolgus monkey TPBG (full length, on cells) (cynomolgus monkey) (UniProt Q4R8Y9); assay: FACS on CHO-k1-cTPBG 3F13G4 cells
[19] = biological target: T1, human TPBG (full length, on cells); assay: FACS, HEK293 clone 293F-hTPBG 5E5
[20] = biological target: T1, human TPBG (full length, on cells); assay: FACS, HEK293 clone 293F-hTPBG 4G1
[21] = biological target: T1, human TPBG (full length, on cells); assay: FACS, HEK293 clone 293F-hTPBG 4G6
[22] = biological target: T1, human TPBG (full length, on cells); assay: FACS, HEK293 clone 293F-hTPBG 5A11
[23] = biological target: T1, human TPBG (full length, on cells); assay: FACS, HEK293 clone 293F-hTPBG 4F9
[24] = biological target: T1, human TPBG (full length, on cells); assay: FACS, HEK293 clone 293F-hTPBG 4C3
[25] = biological target: T1, human TPBG (full length, on cells); assay: cell-based or functional assay
[26] = biological target: T1, human TPBG (full length, on cells); assay: cell-based or functional assay; remark: listed apart in the source
[27] = biological target: T1, human TPBG (full length, on cells); assay: cell-based or functional assay; remark: listed apart in the source
[28] = biological target: T1, human TPBG (full length, on cells); assay: cell-based or functional assay; remark: listed apart in the source

MFI [1]: 9.5 MFI
MFI [2]: 36.4 MFI
MFI [3]: 172 MFI
MFI [4]: 33.4 MFI
MFI [5]: 798 MFI
MFI [6]: 135 MFI
MFI [7]: 13.2 MFI
MFI [8]: 75.4 MFI
MFI [9]: 204 MFI
MFI [10]: 216 MFI
percentage of TPBG-positive cells [10]: 98.5%
MFI [11]: 70.6 MFI
MFI [12]: 145 MFI
MFI [13]: 168 MFI
MFI [14]: 11.3 MFI
MFI [15]: 53.2 MFI
MFI [16]: 126 MFI
MFI [17]: 91.8 MFI
MFI [18]: 198 MFI
MFI [19]: 280 MFI
MFI [20]: 131 MFI
MFI [21]: 31.8 MFI
MFI [22]: 166 MFI
MFI [23]: 47.7 MFI
MFI [24]: 27.2 MFI
Molecule: commercial available TPBG antibody (purchased from Sigma, Lot NO: SAB1404485)

Molecule: Control hIgG-MMAF (antibody)
IC50 of cytotoxicity on TPBG-positive NCI-H1299 cells (CellTiter-Glo) [25]: > 100 nM

B1: Chimeric Antibody 36A10-MMAF (antibody, human IgG1, DAR 3, V domains shown)
VH: DVQLQESGPGMVKPSQSLSLTCTVTGYSITSGYDWHWIRHFPGNKLEWMGYISYSGNTNYNPSLKSRISITHNTSKNHFFLRLNSVTTEDTATYYCARGYGNWDAMDYWGQGTSVTVSS
VL: DIVMTQSQKFMSTSVGDRVSVTCKASQIVDTNVAWYQQKPGQSPKALISSASYRYSGVPDRFTGSGSGTDFTLTISNVQSEDLAEYFCQQYNSYPLTFGAGTKLELT
modifications: MC-MMAF on cysteines after TCEP reduction, sites not stated
IC50 of cytotoxicity on TPBG-positive NCI-H1299 cells (CellTiter-Glo) [26]: 0.7 nM

B2: Chimeric Antibody 39A11-MMAF (antibody, human IgG1, DAR 3, V domains shown)
VH: QVQLQQSGAELMKPGASMRLSCKATGYTFTGYWLEWIKRRPGHGLEWIGEILPGRGSTNYNEKFKGKATFTAETSSNTAYMQLTSLTTEDSAIYYCARGGRDFDNWGQGTTLTVSS
VL: DIQMTQSTSSLSASLGDRVTISCSASQGINNHLNWYQQKPDGTVKLLIYYTSSLHSGVPSRFSGSGSGTDYSLTISNLEPEDIAIYYCQQFSKLPYTFGGGTKVEMK
modifications: MC-MMAF on cysteines after TCEP reduction, sites not stated
IC50 of cytotoxicity on TPBG-positive NCI-H1299 cells (CellTiter-Glo) [26]: 4.3 nM

B3: Chimeric Antibody 28D4-MMAF (antibody, human IgG1, DAR 3, V domains shown)
VH: DVQLVESGGGLVRPGGSLKLSCAASGFTFSNYVMSWARQSPEKRLEWVAEISTGGSHTYYSDTVTGRFTISRDNAKKALYLEMSSLRSEDTAIYYCIMFYYGSSYSMDYWGQGTSVTVSS
VL: DIQMTQSTSSLSASLGDRITISCRASQDIRNYLNWYQQKPDGTVKLLIYHTSRLHSGVPSRFSGSGSGTDYSLTISNLEQEDIATYFCQQGDTLPLTFGAGTRLELK
modifications: MC-MMAF on cysteines after TCEP reduction, sites not stated
IC50 of cytotoxicity on TPBG-positive NCI-H1299 cells (CellTiter-Glo) [27]: 0.132 nM
IC50 of cytotoxicity on TPBG-positive NCI-H1568 cells (CellTiter-Glo) [27]: 0.066 nM
IC50 of cytotoxicity on recombinant 293-hTPBG cells (CellTiter-Glo) [28]: 0.024 nM
IC50 of cytotoxicity on TPBG-positive NCI-H1299 cells (CellTiter-Glo) [26]: 0.21 nM

B4: Chimeric Antibody 28D4-DM1 (antibody, human IgG1, DAR about 3, V domains shown)
VH: B3 VH
VL: B3 VL
modifications: SMCC-DM1, sites not stated
IC50 of cytotoxicity on TPBG-positive NCI-H1299 cells (CellTiter-Glo) [27]: 6.08 nM
IC50 of cytotoxicity on TPBG-positive NCI-H1568 cells (CellTiter-Glo) [27]: 2.51 nM
IC50 of cytotoxicity on recombinant 293-hTPBG cells (CellTiter-Glo) [28]: 0.406 nM

B5: Chimeric Antibody 5G4-MMAF (antibody, human IgG1, DAR 3, V domains shown)
VH: EVQLVESGGDLVQPGGSLKLFCAASGFTFSTYGLSWVRQTPDKRLELVATITNNDGSAYYPDSVKGRFTISRDKAKNTLFLQMTSLKSEDTAMYYCARETGFGSSYLFDYWGQGTLVTVSA
VL: NIVMTQTPKFLLVSAGDRVTITCKASQSVSNDVAWYQQKPGQSPKLLIYFATNRYTGVPNRFTGSGYGTEFTFTISSVQAEDLAVYFCQQDYSSPTFGGGTKLEIK
modifications: MC-MMAF on cysteines after TCEP reduction, sites not stated
IC50 of cytotoxicity on TPBG-positive NCI-H1299 cells (CellTiter-Glo) [26]: 87.3 nM

B6: Chimeric Antibody 12B12-MMAF (antibody, human IgG1, DAR 3, V domains shown)
VH: DVQLVESGGGLVQPGGSRKLSCAASGFTFSNFGMHWVRQAPEKGLEWVAYISSGSTSFYYADTVKGRFTISRDNPKNTLFLQMTSLRSEDTAMYYCSRTNSLLRGFFDAWGAGTTVTVSS
VL: DIVLTQSPASLAVSLGQRATISCRASQSVSSSSYTYLHWYQQKPGQPPKLLIKSASNLESGVPARFSGTGSGTDFTLNIHPVEEEDTATYYCQHSWEIPLTFGAGTKLELK
modifications: MC-MMAF on cysteines after TCEP reduction, sites not stated
IC50 of cytotoxicity on TPBG-positive NCI-H1299 cells (CellTiter-Glo) [27]: 0.04 nM
IC50 of cytotoxicity on TPBG-positive NCI-H1568 cells (CellTiter-Glo) [27]: 0.025 nM
IC50 of cytotoxicity on recombinant 293-hTPBG cells (CellTiter-Glo) [28]: 0.001 nM
IC50 of cytotoxicity on TPBG-positive NCI-H1299 cells (CellTiter-Glo) [26]: 0.13 nM
